Data as given in US20120003226A1.

Target: IL-1 receptor (human) (UniProt P14778)
Assay: cell-based or functional assay

UniProt P14778, sequence (P14778 18-569): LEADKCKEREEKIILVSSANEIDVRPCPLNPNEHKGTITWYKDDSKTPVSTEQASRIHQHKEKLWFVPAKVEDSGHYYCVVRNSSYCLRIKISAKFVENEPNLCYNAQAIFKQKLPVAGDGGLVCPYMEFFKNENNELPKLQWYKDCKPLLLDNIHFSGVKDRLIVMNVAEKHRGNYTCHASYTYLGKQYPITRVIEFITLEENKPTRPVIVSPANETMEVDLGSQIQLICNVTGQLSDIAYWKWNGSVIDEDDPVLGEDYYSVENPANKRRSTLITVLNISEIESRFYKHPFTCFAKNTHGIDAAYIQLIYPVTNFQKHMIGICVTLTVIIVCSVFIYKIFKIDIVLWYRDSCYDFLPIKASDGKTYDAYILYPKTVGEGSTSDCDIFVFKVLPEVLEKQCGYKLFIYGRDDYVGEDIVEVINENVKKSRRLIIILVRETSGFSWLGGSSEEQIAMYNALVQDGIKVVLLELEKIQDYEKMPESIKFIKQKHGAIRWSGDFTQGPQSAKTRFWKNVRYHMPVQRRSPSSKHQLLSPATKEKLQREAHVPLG

IC50, inhibition of IL-1β induced production of IL-8 in human whole blood (100 pM rhIL-1β): 53.4 pM
Substance: Kineret® (anakinra) (from UniProt P18510 26-177) (ligand)
